From patent US20200341015A1

How the values were obtained:
Test in all cases: cell-based or functional assay
[1] = target: recombinant human Rab6A (Jena Biosciences) (human) (UniProt P20340)
[2] = target: recombinant human Rab27A (Abnova Corporation) (human) (UniProt P51159)
[3] = target: recombinant human Rab6A (Jena Biosciences) (human) (UniProt P20340); remark: listed apart in the source

Chain of UniProt P20340 (P20340 whole entry): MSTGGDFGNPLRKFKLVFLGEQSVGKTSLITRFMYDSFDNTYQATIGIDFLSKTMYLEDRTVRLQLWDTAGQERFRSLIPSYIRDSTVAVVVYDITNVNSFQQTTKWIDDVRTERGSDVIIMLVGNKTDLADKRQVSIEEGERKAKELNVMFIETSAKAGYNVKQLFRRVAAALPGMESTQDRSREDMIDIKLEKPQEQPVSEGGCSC
Chain of UniProt P51159 (P51159 whole entry): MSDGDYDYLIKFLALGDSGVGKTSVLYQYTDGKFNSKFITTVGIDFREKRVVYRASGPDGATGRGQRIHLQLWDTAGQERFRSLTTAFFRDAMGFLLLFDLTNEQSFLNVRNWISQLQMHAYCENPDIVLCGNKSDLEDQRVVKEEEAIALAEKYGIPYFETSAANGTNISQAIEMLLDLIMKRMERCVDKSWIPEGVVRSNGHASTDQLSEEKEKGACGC

| Molecule | band intensity of biotinylated Rab6a in positive controls, fold against the Rab27a data of FIG. 2 [1] [fold] | band density values of biotinylated Rab substrate, condition 4 [2] | band density values of biotinylated Rab substrate, condition 7 [2] | baseline biotin incorporation in untransduced samples (band density) [2] [a.u.] | best-fit top of the curve, biotin incorporation against MOI of rAAV2/2-REP1 (4-PL) [2] [a.u.] | band density of biotinylated substrate, fold against Rab27a in matching conditions [3] [fold] | band density values of biotinylated Rab substrate, condition 12 [3] | band density values of biotinylated Rab substrate, condition 15 [3] | baseline biotin incorporation in untransduced samples (band density) [3] [a.u.] | best-fit top of the curve, biotin incorporation against MOI of rAAV2/2-REP1 (4-PL) [3] [a.u.] | biotinylated substrate, fold against Rab27a (untransduced 293 lysate) [3] [fold] | strength of the WB signal of biotinylated Rab6a, fold against the Rab27a data of FIG. 2 (AAV-REP1 transduced cells) [3] [fold] |
| --- | --- | --- | --- | --- | --- | --- | --- | --- | --- | --- | --- | --- |
| recombinant fish His-REP1 (Jena Biosciences) | 100 | – | – | – | – | – | – | – | – | – | – | – |
| human Rab escort protein 1 (REP1) (protein, UniProt P24386 1-653, looked up) MADTLPSEFDVIVIGTGLPESIIAAACSRSGRRVLHVDSRSYYGGNWASFSFSGLLSWLKEYQENSDIVSDSPVWQDQILENEEAIALSRKDKTIQHVEVFCYASQDLHEDVEEAGALQKNHALVTSANSTEAADSAFLPTEDESLSTMSCEMLTEQTPSSDPENALEVNGAEVTGEKENHCDDKTCVPSTSAEDMSENVPIAEDTTEQPKKNRITYSQIIKEGRRFNIDLVSKLLYSRGLLIDLLIKSNVSRYAEFKNITRILAFREGRVEQVPCSRADVFNSKQLTMVEKRMLMKFLTFCMEYEKYPDEYKGYEEITFYEYLKTQKLTPNLQYIVMHSIAMTSETASSTIDGLKATKNFLHCLGRYGNTPFLFPLYGQGELPQCFCRMCAVFGGIYCLRHSVQCLVVDKESRKCKAIIDQFGQRIISEHFLVEDSYFPENMCSRVQYRQISRAVLITDRSVLKTDSDQQISILTVPAEEPGTFAVRVIELCSSTMTCMKGTYLVHLTCTSSKTAREDLESVVQKLFVPYTEMEIENEQVEKPRILWALYFNMRDSSDISRSCYNDLPSNVYVCSGPDCGLGNDNAVKQAETLFQEICPNEDFCPPPPNPEDIILDGDSLQPEASESSAIPEANSETFKESTNLGNLEESSE | – | 0.8 | 0.3 | 0.577 | 53.8 | < 2.5 | 1.8 | 0.75 | 5.01 | 92.8 | 2.5 | 10 |
